Experiment in all cases: SPR; IL6R-BF648/IL6R-L=100
(In general: In SPR one partner is held on a chip, and binding of the other changes the refractive index at the surface.)

Assay [1] has as its target T1, human FcγRIa extracellular domain with C-terminal His tag (human, UniProt P12314 16-292).
T1 construct: Whole entry named; also called FcgRIa; FcgIa
The protocol:
(§1) IL6R-L was utilized as the common antibody L chain for all of the antibodies, the antibodies were expressed and purified according to the method of Reference Example 1, and binding to each of the FcγRs (FcγRIa, FcγRIIa type H, FcγRIIa type R, FcγRIIb, and FcγRIIIa type V) was comprehensively evaluated by the method of Reference Example 2.
(§2) Relative binding activities were calculated for the results of analyzing interactions with the respective FcγRs according to the following method.

The target of assay [2] is T2, human FcγRIIa type H extracellular domain with C-terminal His tag (human, UniProt P12318 34-217).
T2 construct: extracellular domain; also called FcgRIIaH; FcγRIIa H
T2 sequence (looked up): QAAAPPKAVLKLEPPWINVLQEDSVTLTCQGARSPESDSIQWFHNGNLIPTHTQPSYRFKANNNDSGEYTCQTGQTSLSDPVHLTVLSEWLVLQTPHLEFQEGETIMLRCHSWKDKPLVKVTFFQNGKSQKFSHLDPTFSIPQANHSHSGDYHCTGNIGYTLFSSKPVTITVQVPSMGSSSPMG
The protocol:
as §1, §2

In assay [3] the target is T3, human FcγRIIb extracellular domain with C-terminal His tag (human, UniProt P31994 43-217).
T3 construct: extracellular domain; For crystals it was expressed with kifunensine and trimmed with Endo F1; also called FcgRIIb; FcγRIIb extracellular region
T3 sequence (looked up): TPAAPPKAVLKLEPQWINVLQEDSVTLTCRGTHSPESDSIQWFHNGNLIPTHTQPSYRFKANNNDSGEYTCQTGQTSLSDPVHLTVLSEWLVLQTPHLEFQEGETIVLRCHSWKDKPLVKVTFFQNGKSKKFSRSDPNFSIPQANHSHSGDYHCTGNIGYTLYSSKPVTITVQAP
The method, then:
as §1, §2

For assay [4], the target named is T4, human FcγRIIIa type V extracellular domain with C-terminal His tag (human, UniProt P08637 17-208).
T4 construct: extracellular domain; also called FcgRIIIaV; FcγRIIIaV
T4 sequence (P08637 17-208 F176V): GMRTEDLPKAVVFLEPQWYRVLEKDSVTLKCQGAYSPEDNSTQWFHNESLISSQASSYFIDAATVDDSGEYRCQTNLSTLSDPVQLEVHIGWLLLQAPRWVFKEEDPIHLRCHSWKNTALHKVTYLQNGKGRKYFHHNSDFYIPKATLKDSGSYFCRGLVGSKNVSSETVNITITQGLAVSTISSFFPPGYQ
The method, then:
as §1, §2

T1 sequence (P12314 16-292): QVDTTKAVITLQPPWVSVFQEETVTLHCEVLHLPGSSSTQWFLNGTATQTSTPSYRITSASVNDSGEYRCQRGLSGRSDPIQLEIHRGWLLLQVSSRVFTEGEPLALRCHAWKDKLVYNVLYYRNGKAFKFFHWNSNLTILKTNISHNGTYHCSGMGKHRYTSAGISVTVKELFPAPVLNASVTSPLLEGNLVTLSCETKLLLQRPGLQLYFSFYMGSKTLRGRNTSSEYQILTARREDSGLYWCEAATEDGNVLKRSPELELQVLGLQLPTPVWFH

B1: IL6R-BP087/IL6R-L (antibody, human IgG1, kappa, name in EU numbering)
heavy: QVQLQESGPGLVKPSETLSLTCAVSGHSISHDHAWSWVRQPPGEGLEWIGFISYSGITNYNPSLQGRVTISRDNSKNTLYLQMNSLRAEDTAVYYCARSLARTTAMDYWGEGTLVTVSSASTKGPSVFPLAPSSKSTSGGTAALGCLVKDYFPEPVTVSWNSGALTSGVHTFPAVLQSSGLYSLSSVVTVPSSSLGTQTYICNVNHKPSNTKVDKKVEPKSCDKTHTCPPCPAPEYLGGDSVFLFPPKPKDTLMISRTPEVTCVVVDVSHEDPEVKFNWYVDGVEVHNAKTKPREEQYNSTYRVVSVLTVLHQDWLNGKEYKCKVSNKALPKPIEKTISKAKGQPREPQVYTLPPSRDELTKNQVSLTCLVKGFYPSDIAVEWESNGQPENNYKTTPPVLDSDGSFFLYSKLTVDKSRWQQGNVFSCSVMHEALHNHYTQESLSLSP
light: not shown
Turning to B1, the relative binding activity in assay [1] came out at 33; in assay [2], 179; in assay [3], 137; in assay [4] it was 158.

B2: IL6R-BP143/IL6R-L (antibody, human IgG1, kappa, name in EU numbering)
heavy: QVQLQESGPGLVKPSETLSLTCAVSGHSISHDHAWSWVRQPPGEGLEWIGFISYSGITNYNPSLQGRVTISRDNSKNTLYLQMNSLRAEDTAVYYCARSLARTTAMDYWGEGTLVTVSSASTKGPSVFPLAPSSKSTSGGTAALGCLVKDYFPEPVTVSWNSGALTSGVHTFPAVLQSSGLYSLSSVVTVPSSSLGTQTYICNVNHKPSNTKVDKKVEPKSCDKTHTCPPCPAPEYLGGDSVFLFPPKPKDTLMISRTPEVTCVVVDVSHEDPEVKFNWYVDGVEVHNAKTKPREEQYNSTYRVVSVLTVLHQDWLNGKEYKCKVSNAALPAPIEKTISKAKGQPREPQVYTLPPSRDELTKNQVSLTCLVKGFYPSDIAVEWESNGQPENNYKTTPPVLDSDGSFFLYSKLTVDKSRWQQGNVFSCSVMHEALHNHYTQESLSLSP
light: not shown
Regarding B2, the relative binding activity in assay [1] was 86; in assay [2], 143; in assay [3] it was 133; in assay [4] it was 114.

B3: IL6R-BP147/IL6R-L (antibody, human IgG1, kappa, name in EU numbering)
heavy: QVQLQESGPGLVKPSETLSLTCAVSGHSISHDHAWSWVRQPPGEGLEWIGFISYSGITNYNPSLQGRVTISRDNSKNTLYLQMNSLRAEDTAVYYCARSLARTTAMDYWGEGTLVTVSSASTKGPSVFPLAPSSKSTSGGTAALGCLVKDYFPEPVTVSWNSGALTSGVHTFPAVLQSSGLYSLSSVVTVPSSSLGTQTYICNVNHKPSNTKVDKKVEPKSCDKTHTCPPCPAPEYLGDDSVFLFPPKPKDTLMISRTPEVTCVVVDVSHEDPEVKFNWYVDGVEVHNAKTKPREEQYNSTYRVVSVLTVLHQDWLNGKEYKCKVSNAALPKPIEKTISKAKGQPREPQVYTLPPSRDELTKNQVSLTCLVKGFYPSDIAVEWESNGQPENNYKTTPPVLDSDGSFFLYSKLTVDKSRWQQGNVFSCSVMHEALHNHYTQESLSLSP
light: not shown
For the molecule B3, the relative binding activity in assay [1] was 24; in assay [2], 582; in assay [3] it was 177; in assay [4], 209.

B4: IL6R-BP088/IL6R-L (antibody, human IgG1, kappa, name in EU numbering)
heavy: QVQLQESGPGLVKPSETLSLTCAVSGHSISHDHAWSWVRQPPGEGLEWIGFISYSGITNYNPSLQGRVTISRDNSKNTLYLQMNSLRAEDTAVYYCARSLARTTAMDYWGEGTLVTVSSASTKGPSVFPLAPSSKSTSGGTAALGCLVKDYFPEPVTVSWNSGALTSGVHTFPAVLQSSGLYSLSSVVTVPSSSLGTQTYICNVNHKPSNTKVDKKVEPKSCDKTHTCPPCPAPELLGDDSVFLFPPKPKDTLMISRTPEVTCVVVDVSHEDPEVKFNWYVDGVEVHNAKTKPREEQYNSTYRVVSVLTVLHQDWLNGKEYKCKVSNAALPKPIEKTISKAKGQPREPQVYTLPPSRDELTKNQVSLTCLVKGFYPSDIAVEWESNGQPENNYKTTPPVLDSDGSFFLYSKLTVDKSRWQQGNVFSCSVMHEALHNHYTQESLSLSP
light: not shown
Regarding B4, the relative binding activity turned out to be 25 in assay [1], 166 in assay [2], 161 in assay [3] and 122 in assay [4].

B5: IL6R-BP133/IL6R-L (antibody, human IgG1, kappa, name in EU numbering)
heavy: QVQLQESGPGLVKPSETLSLTCAVSGHSISHDHAWSWVRQPPGEGLEWIGFISYSGITNYNPSLQGRVTISRDNSKNTLYLQMNSLRAEDTAVYYCARSLARTTAMDYWGEGTLVTVSSASTKGPSVFPLAPSSKSTSGGTAALGCLVKDYFPEPVTVSWNSGALTSGVHTFPAVLQSSGLYSLSSVVTVPSSSLGTQTYICNVNHKPSNTKVDKKVEPKSCDKTHTCPPCPAPDYLGGDSVFLFPPKPKDTLMISRTPEVTCVVVDVSHEDPEVKFNWYVDGVEVHNAKTKPREEQYNSTYRVVSVLTVLHQDWLNGKEYKCKVSNKALPKPIEKTISKAKGQPREPQVYTLPPSRDELTKNQVSLTCLVKGFYPSDIAVEWESNGQPENNYKTTPPVLDSDGSFFLYSKLTVDKSRWQQGNVFSCSVMHEALHNHYTQESLSLSP
light: not shown
On to B5, for which the relative binding activity in assay [1] amounted to 41; in assay [2], 151; in assay [3], 137; in assay [4], 114.

B6: IL6R-BP129/IL6R-L (antibody, human IgG1, kappa, name in EU numbering)
heavy: QVQLQESGPGLVKPSETLSLTCAVSGHSISHDHAWSWVRQPPGEGLEWIGFISYSGITNYNPSLQGRVTISRDNSKNTLYLQMNSLRAEDTAVYYCARSLARTTAMDYWGEGTLVTVSSASTKGPSVFPLAPSSKSTSGGTAALGCLVKDYFPEPVTVSWNSGALTSGVHTFPAVLQSSGLYSLSSVVTVPSSSLGTQTYICNVNHKPSNTKVDKKVEPKSCDKTHTCPPCPAPDLLGGDSVFLFPPKPKDTLMISRTPEVTCVVVDVSHEDPEVKFNWYVDGVEVHNAKTKPREEQDNSTYRVVSVLTVLHQDWLNGKEYKCKVSNKALPKPIEKTISKAKGQPREPQVYTLPPSRDELTKNQVSLTCLVKGFYPSDIAVEWESNGQPENNYKTTPPVLDSDGSFFLYSKLTVDKSRWQQGNVFSCSVMHEALHNHYTQESLSLSP
light: not shown
On to B6, for which the relative binding activity amounted to 68 in assay [1], 98 in assay [2], 138 in assay [3] and 95 in assay [4].

B7: IL6R-BP144/IL6R-L (antibody, human IgG1, kappa, name in EU numbering)
heavy: QVQLQESGPGLVKPSETLSLTCAVSGHSISHDHAWSWVRQPPGEGLEWIGFISYSGITNYNPSLQGRVTISRDNSKNTLYLQMNSLRAEDTAVYYCARSLARTTAMDYWGEGTLVTVSSASTKGPSVFPLAPSSKSTSGGTAALGCLVKDYFPEPVTVSWNSGALTSGVHTFPAVLQSSGLYSLSSVVTVPSSSLGTQTYICNVNHKPSNTKVDKKVEPKSCDKTHTCPPCPAPELLGDDSVFLFPPKPKDTLMISRTPEVTCVVVDVSHEDPEVKFNWYVDGVEVHNAKTKPREEQYNSTYRVVSVLTVLHQDWLNGKEYKCKVSNAALPAPIEKTISKAKGQPREPQVYTLPPSRDELTKNQVSLTCLVKGFYPSDIAVEWESNGQPENNYKTTPPVLDSDGSFFLYSKLTVDKSRWQQGNVFSCSVMHEALHNHYTQESLSLSP
light: not shown
For the molecule B7, the relative binding activity in assay [1] came out at 64; in assay [2], 108; in assay [3] it was 121; in assay [4], 128.

B8: IL6R-BP145/IL6R-L (antibody, human IgG1, kappa, name in EU numbering)
heavy: QVQLQESGPGLVKPSETLSLTCAVSGHSISHDHAWSWVRQPPGEGLEWIGFISYSGITNYNPSLQGRVTISRDNSKNTLYLQMNSLRAEDTAVYYCARSLARTTAMDYWGEGTLVTVSSASTKGPSVFPLAPSSKSTSGGTAALGCLVKDYFPEPVTVSWNSGALTSGVHTFPAVLQSSGLYSLSSVVTVPSSSLGTQTYICNVNHKPSNTKVDKKVEPKSCDKTHTCPPCPAPEYLGDDSVFLFPPKPKDTLMISRTPEVTCVVVDVSHEDPEVKFNWYVDGVEVHNAKTKPREEQYNSTYRVVSVLTVLHQDWLNGKEYKCKVSNKALPAPIEKTISKAKGQPREPQVYTLPPSRDELTKNQVSLTCLVKGFYPSDIAVEWESNGQPENNYKTTPPVLDSDGSFFLYSKLTVDKSRWQQGNVFSCSVMHEALHNHYTQESLSLSP
light: not shown
In the case of B8, the relative binding activity in assay [1] amounted to 41; in assay [2], 224; in assay [3], 152; in assay [4] it was 153.

B9: IL6R-BP089/IL6R-L (antibody, human IgG1, kappa, name in EU numbering)
heavy: QVQLQESGPGLVKPSETLSLTCAVSGHSISHDHAWSWVRQPPGEGLEWIGFISYSGITNYNPSLQGRVTISRDNSKNTLYLQMNSLRAEDTAVYYCARSLARTTAMDYWGEGTLVTVSSASTKGPSVFPLAPSSKSTSGGTAALGCLVKDYFPEPVTVSWNSGALTSGVHTFPAVLQSSGLYSLSSVVTVPSSSLGTQTYICNVNHKPSNTKVDKKVEPKSCDKTHTCPPCPAPEYLGGDSVFLFPPKPKDTLMISRTPEVTCVVVDVSHEDPEVKFNWYVDGVEVHNAKTKPREEQYNSTYRVVSVLTVLHQDWLNGKEYKCKVSNAALPKPIEKTISKAKGQPREPQVYTLPPSRDELTKNQVSLTCLVKGFYPSDIAVEWESNGQPENNYKTTPPVLDSDGSFFLYSKLTVDKSRWQQGNVFSCSVMHEALHNHYTQESLSLSP
light: not shown
For the molecule B9, the relative binding activity is 43 in assay [1], 186 in assay [2], 147 in assay [3] and 136 in assay [4].

(Values after US20150299296A1 (Chugai, published 2015).)
